Assay results taken from article doi:10.1101/2022.02.08.479534, “FoxP3 can fold into two distinct dimerization states with divergent functional implications for T cell homeostasis”.

Legend:
FoxP3RBR-forkhead = molecular target: T1, FoxP3RBR-forkhead (Mus musculus, UniProt Q99JB6 284-423); test: EMSA; EMSA: 0.2 uM DNA, 20 mM Tris pH 7.5, 150 mM NaCl, 1.5 mM MgCl2, 2 mM DTT, 30 min at 4 C; anti-HA bead DNA pull-down: 20 min at room temperature; the EMSA IR-FKHM4g length is taken as 31 bp; settings: protein: recombinant; tags: His6-NusA cleaved (HRV3C); blunt
T1 sequence: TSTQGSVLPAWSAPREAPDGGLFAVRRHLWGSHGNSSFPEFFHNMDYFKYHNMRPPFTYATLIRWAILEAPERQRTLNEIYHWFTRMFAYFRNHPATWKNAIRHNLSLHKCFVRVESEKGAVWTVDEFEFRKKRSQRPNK

[1] = molecular target: T2, NusA-FoxP3RBR-forkhead A372G (Mus musculus, UniProt Q99JB6 284-423, A372G); test: as above; settings: protein: recombinant; tags: His6-NusA; blunt
T2 sequence: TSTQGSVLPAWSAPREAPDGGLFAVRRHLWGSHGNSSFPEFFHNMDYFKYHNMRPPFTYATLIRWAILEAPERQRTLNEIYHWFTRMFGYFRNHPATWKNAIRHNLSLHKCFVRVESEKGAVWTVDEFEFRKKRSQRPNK

FoxP3ΔN'' = molecular target: T3, FoxP3ΔN'' (Mus musculus, UniProt Q99JB6 204-417, C217S;C231S;del277-314); test: as above; settings: protein: recombinant; tags: His6-NusA cleaved; chain copies: 2; blunt
T3 sequence: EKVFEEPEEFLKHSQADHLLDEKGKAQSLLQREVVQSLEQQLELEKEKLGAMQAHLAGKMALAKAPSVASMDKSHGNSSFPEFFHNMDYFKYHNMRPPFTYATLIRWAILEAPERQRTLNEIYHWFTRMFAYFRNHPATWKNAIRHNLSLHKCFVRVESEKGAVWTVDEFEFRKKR

[2] = molecular target: T4, NusA-FoxP3RBR-forkhead A372S (Mus musculus, UniProt Q99JB6 284-423, A372S); test: as above; settings: protein: recombinant; tags: His6-NusA; blunt
T4 sequence: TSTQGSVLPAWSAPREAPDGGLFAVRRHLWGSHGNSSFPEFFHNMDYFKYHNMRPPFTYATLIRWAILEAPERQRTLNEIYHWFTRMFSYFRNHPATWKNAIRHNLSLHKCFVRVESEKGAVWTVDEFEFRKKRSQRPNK

FoxP3ΔN = molecular target: T5, FoxP3ΔN (Mus musculus, UniProt Q99JB6 188-423); test: as above; settings: protein: recombinant; tags: His6-NusA cleaved (HRV3C); chain copies: 2; blunt
T5 sequence: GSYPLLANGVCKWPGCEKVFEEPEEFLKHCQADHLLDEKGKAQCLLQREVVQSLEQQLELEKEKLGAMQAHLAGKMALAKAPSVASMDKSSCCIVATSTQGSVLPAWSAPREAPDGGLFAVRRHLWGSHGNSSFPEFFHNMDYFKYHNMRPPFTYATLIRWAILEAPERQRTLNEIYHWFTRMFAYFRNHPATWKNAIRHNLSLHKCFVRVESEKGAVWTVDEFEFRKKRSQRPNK

FoxP3ΔN' = molecular target: T6, FoxP3ΔN' (Mus musculus, UniProt Q99JB6 204-417, C217S;C231S;del277-304); test: as above; settings: protein: recombinant; tags: His6-NusA cleaved; chain copies: 2; blunt
T6 sequence: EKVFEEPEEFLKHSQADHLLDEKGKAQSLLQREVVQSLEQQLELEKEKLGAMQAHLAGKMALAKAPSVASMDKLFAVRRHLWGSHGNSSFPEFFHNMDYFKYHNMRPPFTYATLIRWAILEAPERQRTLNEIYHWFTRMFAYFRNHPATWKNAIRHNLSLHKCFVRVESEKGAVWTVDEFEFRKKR

NusA-FoxP3RBR-forkhead = molecular target: T7, NusA-FoxP3RBR-forkhead (Mus musculus, UniProt Q99JB6 284-423); test: as above; settings: protein: recombinant; tags: His6-NusA; blunt
T7 sequence: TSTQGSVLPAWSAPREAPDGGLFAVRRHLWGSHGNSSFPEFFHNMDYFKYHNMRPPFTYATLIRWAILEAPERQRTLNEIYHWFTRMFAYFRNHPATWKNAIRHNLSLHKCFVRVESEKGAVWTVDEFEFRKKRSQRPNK

NusA-FoxP1RBR-forkhead = molecular target: T8, NusA-FoxP1RBR-forkhead (Mus musculus, UniProt P58462 433-579); test: EMSA; equal to sFKHM; EMSA: 0.2 uM DNA, 20 mM Tris pH 7.5, 150 mM NaCl, 1.5 mM MgCl2, 2 mM DTT, 30 min at 4 C; anti-HA bead DNA pull-down: 20 min at room temperature; the EMSA IR-FKHM4g length is taken as 31 bp; settings: protein: recombinant; tags: His6-NusA; blunt
T8 sequence: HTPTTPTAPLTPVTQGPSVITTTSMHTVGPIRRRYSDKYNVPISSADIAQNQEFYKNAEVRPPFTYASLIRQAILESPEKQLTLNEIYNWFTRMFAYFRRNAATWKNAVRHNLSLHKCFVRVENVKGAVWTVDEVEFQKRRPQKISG

Measured: binding result

B1: IR-FKHM4g (31bp) (dsDNA)
DNA 1: TTAGGAAAATTTGTTTACTCGAGTAAACAAA
DNA 2: TTTGTTTACTCGAGTAAACAAATTTTCCTAA
binds: all assays above
